Here are results for four sequences from the supplement of paper PMC5998384.

Series [1] concerns HeLa Kyoto. In words: solubility in G1/S (NP-40 vs SDS abundance) (log2 ratio); higher = more soluble. The settings on record: cell cycle stage: G1/S.
Series [2] has as its system HeLa Kyoto. In words: melting temperature (median over replicates), in situ; higher = more thermally stable.
Series [3] has as its system HeLa Kyoto. In words: solubility change mitosis vs G1/S (difference of NP-40 vs SDS log2 ratios) (log2 ratio difference); higher = more soluble in mitosis.
The subject of series [4] is HeLa Kyoto. In words: thermal stability score vs G1/S (z-score of summed log2 fold changes over temperatures); higher = more thermally stable than in G1/S.
[5] abbreviates: cell cycle stage: early G1 (4.5 h after nocodazole release).
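Wherever melting temperature (median over replicates), in situ is given: HeLa Kyoto cells synchronized by double thymidine or nocodazole block, proteins quantified by TMT10plex mass spectrometry, three independent biological replicates.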
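Wherever solubility change mitosis vs G1/S (difference of NP-40 vs SDS log2 ratios) is given: synchronized HeLa Kyoto cells (double thymidine block for G1/S, nocodazole release for mitosis), protein amounts in NP-40 versus SDS lysates quantified by mass spectrometry, three biological replicates.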
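Wherever solubility in G1/S (NP-40 vs SDS abundance) is given: HeLa Kyoto cells arrested at G1/S by double thymidine block, proteins quantified by TMT10plex mass spectrometry in mild NP-40 versus SDS extracts, three biological replicates.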
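Wherever thermal stability score vs G1/S (z-score of summed log2 fold changes over temperatures) is given: synchronized HeLa Kyoto cells, proteins quantified by TMT10plex mass spectrometry, three biological replicates, mitosis taken 0.5 h after nocodazole release, G1/S directly after double thymidine block.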

In the case of “MEASVILPILKKKLAFLSGGKDRRSGLILTIPLCLEQTNMDELSVTLDYLLSIPSEKCKARGFTVIVDGRKSQWNVVKTVVVMLQNVVPAEVSLVCVVKPDEFWDKKVTHFCFWKEKDRLGFEVILVSANKLTRYIEPCQLTEDFGGSLTYDHMDWLNKRLVFEKFTKESTSLLDELALINNGSDKGNQQEKERSVDLNFLPSVDPETVLQTGHELLSELQQRRFNGSDGGVSWSPMDDELLAQPQVMKLLDSLREQYTRYQEVCRQRSKRTQLEEIQQKVMQVVNWLEGPGSEQLRAQWGIGDSIRASQALQQKHEEIESQHSEWFAVYVELNQQIAALLNAGDEEDLVELKSLQQQLSDVCYRQASQLEFRQNLLQAALEFHGVAQDLSQQLDGLLGMLCVDVAPADGASIQQTLKLLEEKLKSVDVGLQGLREKGQGLLDQISNQASWAYGKDVTIENKENVDHIQGVMEDMQLRKQRCEDMVDVRRLKMLQMVQLFKCEEDAAQAVEWLSELLDALLKTHIRLGDDAQETKVLLEKHRKFVDVAQSTYDYGRQLLQATVVLCQSLRCTSRSSGDTLPRLNRVWKQFTIASEERVHRLEMAIAFHSNAEKILQDCPEEPEAINDEEQFDEIEAVGKSLLDRLTVPVVYPDGTEQYFGSPSDMASTAENIRDRMKLVNLKRQQLRHPEMVTTES [SESTD1]”, in the series on HeLa Kyoto [1], the “solubility in G1/S (log2)” value came out at 0.132. Further, the melting temperature in the series on HeLa Kyoto [2] (cell cycle stage: mitosis) is 49.5 °C. Also, in the series with HeLa Kyoto [3], the “solubility change mitosis (log2)” value is -0.126. Also, the thermal stability score was -0.259 in the series with HeLa Kyoto [4] (setting [5]) and 0.238 in the series on HeLa Kyoto [4] (cell cycle stage: mitosis).
For the sequence “MEATGTDEVDKLKTKFISAWNNMKYSWVLKTKTYFSRNSPVLLLGKCYHFKYEDEDKTLPAESGCTIEDHVIAGNVEEFRKDFISRIWLTYREEFPQIEGSALTTDCGWGCTLRTGQMLLAQGLILHFLGRAWTWPDALNIENSDSESWTSHTVKKFTASFEASLSGEREFKTPTISLKETIGKYSDDHEMRNEVYHRKIISWFGDSPLALFGLHQLIEYGKKSGKKAGDWYGPAVVAHILRKAVEEARHPDLQGITIYVAQDCTVYNSDVIDKQSASMTSDNADDKAVIILVPVRLGGERTNTDYLEFVKGILSLEYCVGIIGGKPKQSYYFAGFQDDSLIYMDPHYCQSFVDVSIKDFPLETFHCPSPKKMSFRKMDPSCTIGFYCRNVQDFKRASEEITKMLKFSSKEKYPLFTFVNGHSRDYDFTSTTTNEEDLFSEDEKKQLKRFSTEEFVLL [ATG4C]”, in the series on HeLa Kyoto [1], the “solubility in G1/S (log2)” value is -1.32. Further, the figures for the melting temperature in the series with HeLa Kyoto [2] (cell cycle stage: G1/S) and in the series on HeLa Kyoto [2] (cell cycle stage: mitosis) were 50.6 °C and 50.3 °C, respectively. For the same sequence, the “solubility change mitosis (log2)” value in the series on HeLa Kyoto [3] was 0.268. In addition, the results for the thermal stability score with HeLa Kyoto [4] (setting [5]) and in the series with HeLa Kyoto [4] (cell cycle stage: mitosis) were -0.279 and 0.138, respectively.
As for “MEATGVLPFVRGVDLSGNDFKGGYFPENVKAMTSLRWLKLNRTGLCYLPEELAALQKLEHLSVSHNNLTTLHGELSSLPSLRAIVARANSLKNSGVPDDIFKLDDLSVLDLSHNQLTECPRELENAKNMLVLNLSHNSIDTIPNQLFINLTDLLYLDLSENRLESLPPQMRRLVHLQTLVLNGNPLLHAQLRQLPAMTALQTLHLRSTQRTQSNLPTSLEGLSNLADVDLSCNDLTRVPECLYTLPSLRRLNLSSNQITELSLCIDQWVHVETLNLSRNQLTSLPSAICKLSKLKKLYLNSNKLDFDGLPSGIGKLTNLEEFMAANNNLELVPESLCRCPKLRKLVLNKNHLVTLPEAIHFLTEIEVLDVRENPNLVMPPKPADRAAEWYNIDFSLQNQLRLAGASPATVAAAAAAGSGPKDPMARKMRLRRRKDSAQDDQAKQVLKGMSDVAQEKNKKQEESADARAPSGKVRRWDQGLEKPRLDYSEFFTEDVGQLPGLTIWQIENFVPVLVEEAFHGKFYEADCYIVLKTFLDDSGSLNWEIYYWIGGEATLDKKACSAIHAVNLRNYLGAECRTVREEMGDESEEFLQVFDNDISYIEGGTASGFYTVEDTHYVTRMYRVYGKKNIKLEPVPLKGTSLDPRFVFLLDRGLDIYVWRGAQATLSSTTKARLFAEKINKNERKGKAEITLLVQGQELPEFWEALGGEPSEIKKHVPEDFWPPQPKLYKVGLGLGYLELPQINYKLSVEHKQRPKVELMPRMRLLQSLLDTRCVYILDCWSDVFIWLGRKSPRLVRAAALKLGQELCGMLHRPRHATVSRSLEGTEAQVFKAKFKNWDDVLTVDYTRNAEAVLQSPGLSGKVKRDAEKKDQMKADLTALFLPRQPPMSLAEAEQLMEEWNEDLDGMEGFVLEGKKFARLPEEEFGHFYTQDCYVFLCRYWVPVEYEEEEKKEDKEEKAEGKEGEEATAEAEEKQPEEDFQCIVYFWQGREASNMGWLTFTFSLQKKFESLFPGKLEVVRMTQQQENPKFLSHFKRKFIIHRGKRKAVQGAQQPSLYQIRTNGSALCTRCIQINTDSSLLNSEFCFILKVPFESEDNQGIVYAWVGRASDPDEAKLAEDILNTMFDTSYSKQVINEGEEPENFFWVGIGAQKPYDDDAEYMKHTRLFRCSNEKGYFAVTEKCSDFCQDDLADDDIMLLDNGQEVYMWVGTQTSQVEIKLSLKACQVYIQHMRSKEHERPRRLRLVRKGNEQHAFTRCFHAWSAFCKALA [FLII]”, in the series on HeLa Kyoto [1], the “solubility in G1/S (log2)” value is -0.172. The melting temperature with HeLa Kyoto [2] (cell cycle stage: G1/S) and in the series with HeLa Kyoto [2] (cell cycle stage: mitosis) was 49.5 °C throughout. Further, in the series on HeLa Kyoto [3], the “solubility change mitosis (log2)” value is -0.0947. The results for the thermal stability score in the series with HeLa Kyoto [4] (setting [5]) and in the series with HeLa Kyoto [4] (cell cycle stage: mitosis) were -0.0623 and 0.353, respectively.
In the case of “MEAVLTEELDEEEQLLRRHRKEKKELQAKIQGMKNAVPKNDKKRRKQLTEDVAKLEKEMEQKHREELEQLKLTTKENKIDSVAVNISNLVLENQPPRISKAQKRREKKAALEKEREERIAEAEIENLTGARHMESEKLAQILAARQLEIKQIPSDGHCMYKAIEDQLKEKDCALTVVALRSQTAEYMQSHVEDFLPFLTNPNTGDMYTPEEFQKYCEDIVNTAAWGGQLELRALSHILQTPIEIIQADSPPIIVGEEYSKKPLILVYMRHAYGLGEHYNSVTRLVNIVTENCS [OTUD6B]”, the “solubility in G1/S (log2)” value in the series on HeLa Kyoto [1] worked out at 0.512. The melting temperature in the series on HeLa Kyoto [2] (cell cycle stage: G1/S) was determined as 49.9 °C; in the series with HeLa Kyoto [2] (cell cycle stage: mitosis), 50 °C. In addition, in the series on HeLa Kyoto [3], the “solubility change mitosis (log2)” value was -0.0729. The thermal stability score in the series with HeLa Kyoto [4] (setting [5]) was determined as 0.405; in the series with HeLa Kyoto [4] (cell cycle stage: mitosis), 0.425.
